Consider four compounds from publication PMC4982137, “Mycobacterium tuberculosis H37Ra: a surrogate for the expression of conserved, multimeric proteins of M.tb H37Rv” (Microbial Cell Factories, 2016).

The target of series [1] is MT-H-Eno (M.tb H37Rv Enolase) (Mycobacterium tuberculosis, UniProt P9WNL1).
Series [2] concerns the target T1, MT-PykA-H (M.tb H37Rv PykA) (Mycobacterium tuberculosis, UniProt P9WKE5).
T1 construct: gene pyk

The target of series [3] is transferrin-biotin (human) (UniProt P02787). Kind of series: pull-down.
The test system of a further series is O=C[C@H](O)COP(=O)(O)O. As to the kind of experiment: purified protein. Particulars: pH 8.5; 25.0 °C.
Series [4] deals with NC(=O)c1ccc[n+]([C@@H]2O[C@H](COP(=O)(O)OP(=O)(O)OC[C@H]3O[C@@H](n4cnc5c(N)ncnc54)[C@H](O)[C@@H]3O)[C@@H](O)[C@H]2O)c1. Kind of series: purified protein. To be noted: pH 8.5; 25.0 °C.

Where a name gives a salt, the structure may show the parent alone.

T1 sequence (P9WKE5 whole entry, looked up): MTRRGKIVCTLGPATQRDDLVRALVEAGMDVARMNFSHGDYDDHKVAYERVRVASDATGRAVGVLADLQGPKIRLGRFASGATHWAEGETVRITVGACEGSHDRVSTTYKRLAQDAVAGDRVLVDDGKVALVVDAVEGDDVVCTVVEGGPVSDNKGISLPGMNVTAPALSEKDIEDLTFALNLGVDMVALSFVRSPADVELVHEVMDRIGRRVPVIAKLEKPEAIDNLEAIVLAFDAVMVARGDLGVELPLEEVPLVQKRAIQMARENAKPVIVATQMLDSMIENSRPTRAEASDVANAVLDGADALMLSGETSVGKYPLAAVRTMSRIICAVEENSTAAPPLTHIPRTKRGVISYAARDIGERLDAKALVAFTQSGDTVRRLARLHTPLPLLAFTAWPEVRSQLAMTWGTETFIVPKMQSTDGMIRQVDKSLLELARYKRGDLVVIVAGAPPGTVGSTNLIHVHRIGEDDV
Sequence of MT-H-Eno (M.tb H37Rv Enolase) (P9WNL1 whole entry, looked up): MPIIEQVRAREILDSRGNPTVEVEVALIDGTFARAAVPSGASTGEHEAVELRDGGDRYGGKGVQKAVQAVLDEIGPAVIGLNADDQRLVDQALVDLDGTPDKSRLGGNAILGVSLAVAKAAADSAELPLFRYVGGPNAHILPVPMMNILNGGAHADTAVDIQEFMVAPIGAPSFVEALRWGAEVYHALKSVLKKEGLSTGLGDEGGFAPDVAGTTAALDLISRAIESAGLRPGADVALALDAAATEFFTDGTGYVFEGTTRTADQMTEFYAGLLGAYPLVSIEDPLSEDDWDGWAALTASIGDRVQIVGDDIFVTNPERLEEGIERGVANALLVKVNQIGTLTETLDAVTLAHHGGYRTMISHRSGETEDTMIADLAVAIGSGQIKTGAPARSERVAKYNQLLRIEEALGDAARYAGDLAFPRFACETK
Sequence of transferrin-biotin (human) (P02787 20-698): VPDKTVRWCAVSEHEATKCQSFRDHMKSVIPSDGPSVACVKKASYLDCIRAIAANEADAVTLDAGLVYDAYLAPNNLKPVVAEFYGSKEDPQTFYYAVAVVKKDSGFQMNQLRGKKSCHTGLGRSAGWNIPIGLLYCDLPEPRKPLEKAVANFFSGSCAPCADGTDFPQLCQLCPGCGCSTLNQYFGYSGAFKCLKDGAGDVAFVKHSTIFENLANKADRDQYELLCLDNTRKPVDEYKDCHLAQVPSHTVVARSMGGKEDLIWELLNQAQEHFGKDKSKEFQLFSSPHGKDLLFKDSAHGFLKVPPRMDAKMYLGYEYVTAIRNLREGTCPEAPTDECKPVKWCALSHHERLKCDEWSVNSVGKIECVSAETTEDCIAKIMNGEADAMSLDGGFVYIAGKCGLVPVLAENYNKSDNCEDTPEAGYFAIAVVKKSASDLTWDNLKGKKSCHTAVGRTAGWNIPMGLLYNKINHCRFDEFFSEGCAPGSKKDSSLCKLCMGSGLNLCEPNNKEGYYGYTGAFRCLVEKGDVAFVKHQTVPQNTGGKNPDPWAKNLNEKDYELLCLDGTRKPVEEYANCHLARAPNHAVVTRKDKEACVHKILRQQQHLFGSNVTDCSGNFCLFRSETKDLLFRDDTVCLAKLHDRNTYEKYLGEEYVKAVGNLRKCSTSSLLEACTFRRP

For `O=C(O)[C@@H](CO)OP(=O)(O)O` [D (+)-2 phosphoglyceric acid sodium salt], the “absorbance increase at 240 nm” value in series [1] was “buffer lacking the specific substrate 2-PG”.
`C=C(OP(=O)(O)O)C(=O)O` [sodium phosphoenol pyruvate]: the “lactate dehydrogenase-coupled NADH oxidation at 340 nm” value in series [2] was “buffer lacking the specific substrate sodium phosphoenol pyruvate”.
In turn, “EC-H-GAPDH: recombinant M.tb H37Rv GAPDH with an N-terminal His tag, expressed in E. coli (from UniProt P9WN83 1-339) (enzyme)” returned a percent decrease of binding against MT-GAPDH-H (densitometry) in series [3] of 70%.
What is called Km is the concentration of substrate that gives half-maximal velocity. A word on the kcat: it is the number of substrate molecules converted per active site and unit of time at saturation. In the case of “MT-GAPDH-H (M.tb rGAPDH) (Mycobacterium tuberculosis H37Rv)”, the Km in the series with O=C[C@H](O)COP(=O)(O)O turned out to be 169.6 ± 10.53 µM; in series [4], 101.2 ± 8.9 µM. For the same compound, the kcat in the series on O=C[C@H](O)COP(=O)(O)O amounted to 0.00332 ± 0.0002 s⁻¹.
